Molecular target: T1, FLAG-UPF1 (UniProt Q92900-2 1-1118)
T1 sequence (looked up): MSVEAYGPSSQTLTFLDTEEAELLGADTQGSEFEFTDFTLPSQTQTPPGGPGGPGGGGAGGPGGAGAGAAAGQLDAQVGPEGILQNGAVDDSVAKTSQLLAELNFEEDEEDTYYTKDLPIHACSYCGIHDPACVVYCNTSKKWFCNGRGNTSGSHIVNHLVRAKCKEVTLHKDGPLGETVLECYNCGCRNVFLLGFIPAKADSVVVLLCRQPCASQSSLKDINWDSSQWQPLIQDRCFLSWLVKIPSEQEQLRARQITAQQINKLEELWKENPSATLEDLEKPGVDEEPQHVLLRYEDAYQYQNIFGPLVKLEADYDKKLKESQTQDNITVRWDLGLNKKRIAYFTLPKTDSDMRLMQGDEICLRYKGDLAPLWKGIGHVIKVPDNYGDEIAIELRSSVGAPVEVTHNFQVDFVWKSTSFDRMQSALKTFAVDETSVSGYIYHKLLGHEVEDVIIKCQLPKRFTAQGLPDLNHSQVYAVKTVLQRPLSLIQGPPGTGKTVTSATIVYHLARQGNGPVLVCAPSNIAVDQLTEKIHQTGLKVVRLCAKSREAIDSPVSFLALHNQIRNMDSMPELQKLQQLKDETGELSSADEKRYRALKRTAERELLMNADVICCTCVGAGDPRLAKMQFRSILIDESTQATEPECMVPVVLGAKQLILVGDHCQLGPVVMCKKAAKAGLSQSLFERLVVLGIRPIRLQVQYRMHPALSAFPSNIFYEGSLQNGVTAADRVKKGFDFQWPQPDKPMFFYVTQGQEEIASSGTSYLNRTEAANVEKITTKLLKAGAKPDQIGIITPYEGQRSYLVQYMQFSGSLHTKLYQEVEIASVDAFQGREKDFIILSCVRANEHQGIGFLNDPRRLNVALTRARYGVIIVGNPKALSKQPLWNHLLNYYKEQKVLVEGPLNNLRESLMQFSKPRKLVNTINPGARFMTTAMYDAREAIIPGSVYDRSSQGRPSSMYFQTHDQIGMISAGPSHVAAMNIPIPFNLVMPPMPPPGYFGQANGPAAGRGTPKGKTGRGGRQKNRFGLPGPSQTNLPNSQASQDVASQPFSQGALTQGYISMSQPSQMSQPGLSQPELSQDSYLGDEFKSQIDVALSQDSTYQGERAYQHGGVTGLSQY
Assay: co-IP

fold change of the association after IR exposure, against untreated cells: 3.1 fold
B1: staufen1 (STAU1), endogenous (natural protein, human (endogenous in HEK293T), UniProt O95793 1-577, looked up)
chain: MSQVQVQVQNPSAALSGSQILNKNQSLLSQPLMSIPSTTSSLPSENAGRPIQNSALPSASITSTSAAAESITPTVELNALCMKLGKKPMYKPVDPYSRMQSTYNYNMRGGAYPPRYFYPFPVPPLLYQVELSVGGQQFNGKGKTRQAAKHDAAAKALRILQNEPLPERLEVNGRESEEENLNKSEISQVFEIALKRNLPVNFEVARESGPPHMKNFVTKVSVGEFVGEGEGKSKKISKKNAAIAVLEELKKLPPLPAVERVKPRIKKKTKPIVKPQTSPEYGQGINPISRLAQIQQAKKEKEPEYTLLTERGLPRRREFVMQVKVGNHTAEGTGTNKKVAKRNAAENMLEILGFKVPQAQPTKPALKSEEKTPIKKPGDGRKVTFFEPGSGDENGTSNKEDEFRMPYLSHQQLPAGILPMVPEVAQAVGVSQGHHTKDFTRAAPNPAKATVTAMIARELLYGGTSPTAETILKNNISSGHVPHGPLTRPSEQLDYLSRVQGFQVEYKDFPKNNKNEFVSLINCSSQPPLISHGIGKDVESCHDMAALNILKLLSELDQQSTEMPRTGNGPMSVCGRC
